Data: patent publication US20190390204A1

Columns and labels:
Experiment in all cases: cell-based or functional assay
TALE(Ngn2)-NLS-CRY2PHR = target: TALE(Ngn2)-NLS-CRY2PHR
[1] = target: LITE2.0 TALE-CIB1 component
[2] = target: LITE 1.9.1 TALE-CIB1 construct (mutated NLS, Δ318-334, AD5 NES)

CIB1-NLS-VP64_2A_GFP
Neurog2 expression (qPCR) after 0.5 h of light stimulation, vs YFP samples (TALE(Ngn2)-NLS-CRY2PHR): 5 fold | Neurog2 expression (qPCR), peak at 12 h of light stimulation, vs YFP samples (TALE(Ngn2)-NLS-CRY2PHR): 19 fold

LITE2.0 CRY2PHR-VP64 component
light induction (light/no-light ratio of Neurog2 expression), LITE2.0 [1]: 20.4

CRY2PHR-NLS-VP64_2A_GFP
background mRNA increase (no light), LITE1.9.1 [2]: 1.06 fold | light induction (light/no-light), LITE1.9.1 [2]: 4 fold
